# Target: T1, Mouse MAVS, endogenous, on mitochondria of wild-type MEFs and BMDCs (UniProt Q8VCF0)
# T1 sequence: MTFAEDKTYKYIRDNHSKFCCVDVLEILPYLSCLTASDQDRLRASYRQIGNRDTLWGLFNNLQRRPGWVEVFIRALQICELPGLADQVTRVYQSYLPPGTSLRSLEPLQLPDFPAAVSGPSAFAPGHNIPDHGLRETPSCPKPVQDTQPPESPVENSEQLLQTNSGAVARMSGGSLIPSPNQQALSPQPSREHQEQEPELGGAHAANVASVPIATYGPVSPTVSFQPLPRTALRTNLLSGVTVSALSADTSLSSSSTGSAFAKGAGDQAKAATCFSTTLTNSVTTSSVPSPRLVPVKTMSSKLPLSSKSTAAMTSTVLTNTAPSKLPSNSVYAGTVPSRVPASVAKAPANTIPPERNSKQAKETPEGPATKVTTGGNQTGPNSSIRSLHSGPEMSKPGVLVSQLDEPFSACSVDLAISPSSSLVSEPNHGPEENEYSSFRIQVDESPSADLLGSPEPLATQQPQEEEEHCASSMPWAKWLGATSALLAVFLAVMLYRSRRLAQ
substance,measurement,value
Coxsackievirus B3 (CVB3) 3C^pro protease,"MAVS cleavage in CVB3-infected MEFs (immunoblotting), 3 h post-infection",the CVB3 3C^pro protease had produced only a small amount of cleaved MAVS
same,"MAVS cleavage in CVB3-infected MEFs (immunoblotting), 24 h post-infection",CVB3 3C^pro had significantly cleaved MAVS

# From patent US20190099470
